Reference: PMC4414810 (ACS chemical biology, 2015)
Where no end group is shown, it is not given here.

How the values were obtained:
[1] = biological target: T1, HalM2 (haloduracin lanthipeptide synthetase) (Bacillus halodurans C-125); assay: fluorescence polarisation
[2] = biological target: T1, HalM2 (haloduracin lanthipeptide …); assay: fluorescence polarisation; remark: listed apart in the source

Row | Binder | IC50 [1] | Ki [1] | Kd [2]
1 | MTNLLKEWKMPLERTHNNSNPAGDIFQELEDQDILAGIEGR [HalA1 leader peptide] | 4.1 ± 1.1 µM | 4.1 ± 1.1 µM | –
2 | MVNSKDLRNPEFRKAQGLQFVDEVNEKELSSLAGSGDIEGR (also: 5-FAM on short synthetic peptide ligated to introduced N-terminal Cys) [fluorescein-labeled HalA2 leader peptide] | – | – | 3.7 ± 1.3 µM
